In the supplement of paper PMC10567573:

B1: TMEM175 (parent)
chain: QTSAFARQPRDELERVRVSCTIIF

Variants of: B1
Assay: protein stability index of a GFP-peptide fusion (GPS, HEK-293T) (PSI 1-6); higher = more stable
Conditions: c terminus: a fixed tail appended
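Note: lentivirally expressed fusions sorted by FACS into six bins by GFP to DsRed ratio, PSI derived from sequencing read proportions per bin multiplied by bin number.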

Going from QTSAFARQPRDELERVRVACTIIF [S19A] to QTSAFARQPRDELERVRVCCTIIF [S19C], the protein stability index rises from 1.55 to 1.97.

Compared with QTSAFARQPRDELERVRVFCTIIF [S19F], QTSAFARQPRDELERVRVGCTIIF [S19G] is higher in protein stability index: 1.57 for the first, 2.74 for the second.

First: QTSAFARQPRDELERVRVHCTIIF [S19H]
Second: QTSAFARQPRDELERVRVICTIIF [S19I]
The protein stability index of the first is higher: 2.13 for the first, 1.73 for the second.

First: QTSAFARQPRDELERVRVLCTIIF [S19L]
Second: QTSAFARQPRDELERVRVMCTIIF [S19M]
The protein stability index of the first is lower: 1.78 for the first, 2.94 for the second.

Compared with QTSAFARQPRDELERVRVNCTIIF [S19N], QTSAFARQPRDELERVRVPCTIIF [S19P] is lower in protein stability index: 3.03 for the first, 1.6 for the second.

First: QTSAFARQPRDELERVRVQCTIIF [S19Q]
Second: QTSAFARQPRDELERVRVRCTIIF [S19R]
The protein stability index of the first is higher: 2.37 for the first, 1.84 for the second.

Compared with QTSAFARQPRDELERVRVTCTIIF [S19T], QTSAFARQPRDELERVRVVCTIIF [S19V] is lower in protein stability index: 3.22 for the first, 1.99 for the second.

Compared with QTSAFARQPRDELERVRVWCTIIF [S19W], QTSAFARQPRDELERVRVYCTIIF [S19Y] is higher in protein stability index: 1.39 for the first, 1.65 for the second.

Compared with QTSAFARQPRDELERVRVSATIIF [C20A], QTSAFARQPRDELERVRVSDTIIF [C20D] is higher in protein stability index: 2.33 for the first, 2.53 for the second.

Compared with QTSAFARQPRDELERVRVSETIIF [C20E], QTSAFARQPRDELERVRVSFTIIF [C20F] is lower in protein stability index: 2.22 for the first, 2.07 for the second.

Going from QTSAFARQPRDELERVRVSGTIIF [C20G] to QTSAFARQPRDELERVRVSHTIIF [C20H], the protein stability index rises from 1.56 to 1.57.

First: QTSAFARQPRDELERVRVSITIIF [C20I]
Second: QTSAFARQPRDELERVRVSKTIIF [C20K]
The protein stability index of the first is higher: 2.61 for the first, 1.95 for the second.

First: QTSAFARQPRDELERVRVSNTIIF [C20N]
Second: QTSAFARQPRDELERVRVSPTIIF [C20P]
The protein stability index of the first is higher: 2.57 for the first, 1.78 for the second.

Compared with QTSAFARQPRDELERVRVSQTIIF [C20Q], QTSAFARQPRDELERVRVSRTIIF [C20R] is higher in protein stability index: 2.42 for the first, 3.05 for the second.

Going from QTSAFARQPRDELERVRVSSTIIF [C20S] to QTSAFARQPRDELERVRVSTTIIF [C20T], the protein stability index falls from 1.94 to 1.51.

Compared with QTSAFARQPRDELERVRVSVTIIF [C20V], QTSAFARQPRDELERVRVSWTIIF [C20W] is higher in protein stability index: 1.83 for the first, 2.42 for the second.

Going from QTSAFARQPRDELERVRVSYTIIF [C20Y] to QTSAFARQPRDELERVRVSCAIIF [T21A], the protein stability index rises from 1.83 to 2.

Compared with QTSAFARQPRDELERVRVSCCIIF [T21C], QTSAFARQPRDELERVRVSCDIIF [T21D] is higher in protein stability index: 2.27 for the first, 2.72 for the second.

Compared with QTSAFARQPRDELERVRVSCEIIF [T21E], QTSAFARQPRDELERVRVSCFIIF [T21F] is higher in protein stability index: 1.76 for the first, 2.01 for the second.

Compared with QTSAFARQPRDELERVRVSCGIIF [T21G], QTSAFARQPRDELERVRVSCHIIF [T21H] is lower in protein stability index: 2.91 for the first, 2.12 for the second.

Going from QTSAFARQPRDELERVRVSCIIIF [T21I] to QTSAFARQPRDELERVRVSCKIIF [T21K], the protein stability index falls from 2.63 to 1.66.

Compared with QTSAFARQPRDELERVRVSCLIIF [T21L], QTSAFARQPRDELERVRVSCMIIF [T21M] is higher in protein stability index: 2.64 for the first, 2.77 for the second.

Compared with QTSAFARQPRDELERVRVSCNIIF [T21N], QTSAFARQPRDELERVRVSCPIIF [T21P] is lower in protein stability index: 2.7 for the first, 2.06 for the second.

Compared with QTSAFARQPRDELERVRVSCQIIF [T21Q], QTSAFARQPRDELERVRVSCRIIF [T21R] is lower in protein stability index: 1.58 for the first, 1.52 for the second.

Compared with QTSAFARQPRDELERVRVSCSIIF [T21S], QTSAFARQPRDELERVRVSCYIIF [T21Y] is lower in protein stability index: 2.3 for the first, 1.34 for the second.

Going from QTSAFARQPRDELERVRVSCTAIF [I22A] to QTSAFARQPRDELERVRVSCTCIF [I22C], the protein stability index rises from 1.99 to 2.08.

First: QTSAFARQPRDELERVRVSCTDIF [I22D]
Second: QTSAFARQPRDELERVRVSCTEIF [I22E]
The protein stability index of the first is higher: 3.54 for the first, 2.91 for the second.

Going from QTSAFARQPRDELERVRVSCTFIF [I22F] to QTSAFARQPRDELERVRVSCTGIF [I22G], the protein stability index rises from 1.65 to 2.94.

First: QTSAFARQPRDELERVRVSCTHIF [I22H]
Second: QTSAFARQPRDELERVRVSCTKIF [I22K]
The protein stability index of the first is lower: 2.72 for the first, 3.06 for the second.

First: QTSAFARQPRDELERVRVSCTLIF [I22L]
Second: QTSAFARQPRDELERVRVSCTMIF [I22M]
The protein stability index of the first is higher: 2.49 for the first, 1.88 for the second.

Going from QTSAFARQPRDELERVRVSCTNIF [I22N] to QTSAFARQPRDELERVRVSCTPIF [I22P], the protein stability index rises from 3.05 to 3.2.

First: QTSAFARQPRDELERVRVSCTQIF [I22Q]
Second: QTSAFARQPRDELERVRVSCTRIF [I22R]
The protein stability index of the first is higher: 2.62 for the first, 2.42 for the second.

Going from QTSAFARQPRDELERVRVSCTSIF [I22S] to QTSAFARQPRDELERVRVSCTTIF [I22T], the protein stability index rises from 2.28 to 2.71.

First: QTSAFARQPRDELERVRVSCTVIF [I22V]
Second: QTSAFARQPRDELERVRVSCTWIF [I22W]
The protein stability index of the first is higher: 2.17 for the first, 2.02 for the second.

Compared with QTSAFARQPRDELERVRVSCTYIF [I22Y], QTSAFARQPRDELERVRVSCTIAF [I23A] is higher in protein stability index: 1.69 for the first, 2.06 for the second.

Compared with QTSAFARQPRDELERVRVSCTICF [I23C], QTSAFARQPRDELERVRVSCTIDF [I23D] is higher in protein stability index: 1.67 for the first, 2.81 for the second.

First: QTSAFARQPRDELERVRVSCTIEF [I23E]
Second: QTSAFARQPRDELERVRVSCTIFF [I23F]
The protein stability index of the first is lower: 1.57 for the first, 3.33 for the second.

Compared with QTSAFARQPRDELERVRVSCTIGF [I23G], QTSAFARQPRDELERVRVSCTIHF [I23H] is lower in protein stability index: 2.83 for the first, 2.56 for the second.

Compared with QTSAFARQPRDELERVRVSCTIKF [I23K], QTSAFARQPRDELERVRVSCTILF [I23L] is lower in protein stability index: 2.07 for the first, 1.82 for the second.

First: QTSAFARQPRDELERVRVSCTIMF [I23M]
Second: QTSAFARQPRDELERVRVSCTINF [I23N]
The protein stability index of the first is higher: 2.91 for the first, 2.37 for the second.

Going from QTSAFARQPRDELERVRVSCTIPF [I23P] to QTSAFARQPRDELERVRVSCTIQF [I23Q], the protein stability index falls from 3.13 to 1.79.

First: QTSAFARQPRDELERVRVSCTIRF [I23R]
Second: QTSAFARQPRDELERVRVSCTISF [I23S]
The protein stability index of the first is lower: 2.21 for the first, 2.69 for the second.

Going from QTSAFARQPRDELERVRVSCTIVF [I23V] to QTSAFARQPRDELERVRVSCTIYF [I23Y], the protein stability index falls from 3.26 to 2.6.

Going from QTSAFARQPRDELERVRVSCTIIA [F24A] to QTSAFARQPRDELERVRVSCTIIC [F24C], the protein stability index rises from 2.02 to 2.66.

Compared with QTSAFARQPRDELERVRVSCTIID [F24D], QTSAFARQPRDELERVRVSCTIIE [F24E] is higher in protein stability index: 3.47 for the first, 3.76 for the second.

Compared with QTSAFARQPRDELERVRVSCTIIG [F24G], QTSAFARQPRDELERVRVSCTIIH [F24H] is lower in protein stability index: 2.12 for the first, 2.01 for the second.

Compared with QTSAFARQPRDELERVRVSCTIIK [F24K], QTSAFARQPRDELERVRVSCTIIL [F24L] is lower in protein stability index: 3.15 for the first, 2.47 for the second.
